Data taken from PMC5976746.

What was measured:
[1] = molecular target: BG505 NFL (native flexibly linked) HIV-1 envelope glycoprotein trimer from 293F cells (HIV-1); test: SEC; Superdex 200 (S200) after lectin-affinity column; UV absorbance at 280 nm
[2] = molecular target: BG505 NFL (native flexibly linked) HIV-1 envelope glycoprotein trimer from CHO-M cells (HIV-1); test: native gel or EMSA; blue-native PAGE of SEC fractions (F4-F9) of lectin-purified pool Z supernatant
[3] = molecular target: BG505 NFL (native flexibly linked) HIV-1 envelope glycoprotein trimer from CHO-M cells (HIV-1); test: negative-stain electron microscopy; peak SEC fraction from pool Z; 2% uranyl formate, 2D class averages
[4] = molecular target: BG505 NFL (native flexibly linked) HIV-1 envelope glycoprotein trimer from CHO-M cells (HIV-1); test: SEC; Superdex 200 (S200) after lectin-affinity column; UV absorbance at 280 nm

| Substance | stoichiometry N [1] | stoichiometry N [2] | stoichiometry N [3] | stoichiometry N [4] |
| --- | --- | --- | --- | --- |
| BG505 NFL (native flexibly linked) HIV-1 envelope glycoprotein trimer from 293F cells | 3 | – | – | – |
| BG505 NFL (native flexibly linked) HIV-1 envelope glycoprotein trimer from CHO-M cells | – | 3 | 3 | 3 |
